Measured values taken from publication PMC12139101, “DNA G-quadruplex structures act as functional elements in α- and β-globin enhancers”.

B1: HS-40_G4_aWT (structured_DNA)
DNA: TGGGGGTGGAGGTGGGACAAGGGAAAGGGGTGA
B2: HS2_G4_WT (bWT) (structured_DNA)
DNA: CCAGAAGCGGGGGTGGGGCACTGACCCCGACAGGGGCCT
B3: HS-40_G4_aMut (ssDNA)
DNA: TGTGTGTGGATGTGTGACAAGTGAAATGTGTGA
B4: HS2_G4_bMut (ssDNA)
DNA: CCATAATGCCAAGCTTGAGCACTGATTCCGACACTAGACCT

Key:
POLR2G [1] = target: T1, POLR2G (human, UniProt P62487 1-172); assay: ELISA; apparent Kd; 100 mM K+; ELISA: oligos folded in Tris-HCl pH 7.4, 100 mM KCl; ELISA buffer 100 mM KCl, 50 mM KH2PO4 pH 7.4, 3% BSA block, 1 h (room temperature stated for coating and bl)
POLR2G [2] = target: T1, POLR2G; assay: ELISA; no detectable binding, up to 200 nM; 100 mM K+; ELISA: oligos folded in Tris-HCl pH 7.4, 100 mM KCl; ELISA buffer 100 mM KCl, 50 mM KH2PO4 pH 7.4, 3% BSA block, 1 h (room temperature stated for coating and bl)

| Binder | Kd (POLR2G [1]) [µM] | binding result (POLR2G [2]) |
| --- | --- | --- |
| B1 | 0.0528 | – |
| B2 | 0.0483 | – |
| B3 | – | no binding |
| B4 | – | no binding |
